Measurements: the RNAGym collection of RNA variant scans (doi:10.7554/elife.80360)

B1: HDV Ribozyme (parent)
chain: GGCCGGCAUGGUCCCAGCCUCCUCGCUGGCGCCGGCUGGGCAACAUUCCGAGGGGACCGUCCCCUCGGUAAUGGCGAAUGGGACCCA

Variants of: B1
Assay: self-cleavage, relative activity (ratio to wild type); higher = more cleavage; co-transcriptional

| Variant | self-cleavage |
| --- | --- |
| GGCCGACAUGGUCCCAGCCUCCUCGCUGGCGCCGGCUGGGCAUCAUUCCGAGGGGACCGUCCCCUCGGUAAUGGCGAAUGGGACCCA [G6A A43U] | 0.116 |
| GGCCGGCAUGGUCCCAGCCUCCCCGCUGGCGCCGGCUGGGCAACAUUCCGAGGUGACCGUCCCCUCGGUAAUGGCGAAUGGGACCCA [U23C G54U] | 1.01 |
| GGCCGGCAUGGUCCCAGCCUCCUCGCUGGCGCCGGCUGGGCAACAUUCCGAAGGGACCGUCCCCUCGGUAAUGGCGAAUGGGACCCU [G52A A87U] | 0.897 |
| GGCCGGCAUGGUCCCAGCCUCCUUGCUGGCGCCGGCUGGGCAACAUUCCGAGGGGACCGUCCCCUCGGUAAUGGCGAAUGGCACCCA [C24U G82C] | 0.163 |
| GGCCGGCAUGGUCCCAGCCUCCUCGCUGGAGCCGGCUGGGCAACAUUCCGAGGGGACCGCCCCCUCGGUAAUGGCGAAUGGGACCCA [C30A U60C] | 0.582 |
| GGCCGGCAUGGUCCCAGCCUCCUCGCUGGAGCCGGCUGGGCAACAUUCCGUGGGGACCGUCCCCUCGGUAAUGGCGAAUGGGACCCA [C30A A51U] | 0.735 |
| GGCCGGCAUGGUCCCAGCCUCCUCGAUGGCGCCGGCUGGGCAACAUUCCGAGGGGACCGUCCCCUCGAUAAUGGCGAAUGGGACCCA [C26A G68A] | 1.08 |
| GGCCGGCAUGGUCCCAGCCUCCUCGCUGGCGCCGGCUGGGCAACAUUCCGAAGGGACCGUCCCCUCGGUAAUGACGAAUGGGACCCA [G52A G74A] | 0.518 |
| GGCCGGCAUGGUCCCAGCCUCCUCGCUGGUGCCGGCUGGGCAACAUUCCGAGGGGACCGUCCCCUCGGUAAAGGCGAAUGGGACCCA [C30U U72A] | 0.277 |
| GGCCGGCAUGGUCCCAGCCUCCUCGCUGGCACCGGCUGGGCAACAUUCCGAGGGGACCGUCCCCUCGGUAAUGGCGAAUGGCACCCA [G31A G82C] | 0.146 |
| GGCCGGCUUGGUCCCACCCUCCUCGCUGGCGCCGGCUGGGCAACAUUCCGAGGGGACCGUCCCCUCGGUAAUGGCGAAUGGGACCCA [A8U G17C] | 0.0755 |
| GGCCGGCAUGGUCCCAGCCUCCUCGCGGGCGCCGGCUGGGCAACAUUCCGAGGGGACCGUCCCGUCGGUAAUGGCGAAUGGGACCCA [U27G C64G] | 0.87 |
| GGCCGGCCUGGUCCCAGCCUCCUCGCUGGCGCCGGCUGGGCAACAUUCCGAGGGGACGGUCCCCUCGGUAAUGGCGAAUGGGACCCA [A8C C58G] | 0.68 |
| GGCCGGCAUGGUCCCAGCCUCCACGCUGGCGCCGGCGGGGCAACAUUCCGAGGGGACCGUCCCCUCGGUAAUGGCGAAUGGGACCCA [U23A U37G] | 0.415 |
| AGCCGGCAUGGUCCCAGCCUCCUCGCUGGCGCCGGCUGGGCAACAUUCCGAGGGGACCGUCCCCUCGCUAAUGGCGAAUGGGACCCA [G1A G68C] | 0.0978 |
| UGCCGGCAUGGUCCCAGCCUCCUCGCUGGCGCCGGCUGGGCAACAUUCCGAGGGGACCGUCCCCUCGGUAAUGGAGAAUGGGACCCA [G1U C75A] | 0.277 |

| Variant | self-cleavage |
| --- | --- |
| GGCCGGCAUGGUCCCAGCCUCCUCGCUGGCGUCGGCUGGGCAACGUUCCGAGGGGACCGUCCCCUCGGUAAUGGCGAAUGGGACCCA [C32U A45G] | 0.755 |
| GGCCGGCAUGGUCCCAGCCUCCUCGCUGGCGCCGGCUGGGCAACAUUCCGAGGAGACCGUCCCCUCGGUAAUGGCGAAUUGGACCCA [G54A G80U] | 0.214 |
| GGCCGGCAUGGUCCCAGCCUCCUCGCCGGCGCCGGCUGGGCAACAUUCCGAGGGGACCGUCCCCUCGGUAAUGGCGAAGGGGACCCA [U27C U79G] | 0.32 |
| GGCCGGCAUGGUCCCAGCCUCCUCGCUGGCGCCGGCUGGGCAACAUUCCGAGGGGGCCGUCCCCUCGGUAAUGGCGAAUGGGCCCCA [A56G A83C] | 0.0639 |
| GGCCGGCAUGGUCCCAGCCUCCUCGCUGGCGCCGGCUGGGCAAUAUUCCGAGGGGACCGUCCGCUCGGUAAUGGCGAAUGGGACCCA [C44U C63G] | 0.594 |
| GGCCGGCAUGGCCCCAGCCUCCUCGCUGGCGCCGGCUGGGCAACAUUCCGAGGGGACCGUCCCCUCGGGAAUGGCGAAUGGGACCCA [U12C U69G] | 0.485 |
| GGCCGGCAUGGUCCCAGCCUCCUCGCUGGCGCCGGCUGGGCAACAUUCCGAGAGGACCGUACCCUCGGUAAUGGCGAAUGGGACCCA [G53A C61A] | 0.987 |
| GGCCGGCAUGGUCGCAGCCUCCUCGCUGGCGCCGGCUGGGCAACAUUCCAAGGGGACCGUCCCCUCGGUAAUGGCGAAUGGGACCCA [C14G G50A] | 1.15 |
| GGCCGGCAUGGUCCCAGCCUCCUCCCUGGCGCCGGCUGGGCAACAUUCCGAGGGGACCGUCCCCUCGGUUAUGGCGAAUGGGACCCA [G25C A70U] | 0.0898 |
| GGCCGGCAUGGUCCCAGUCUCCUCGCUGGCUCCGGCUGGGCAACAUUCCGAGGGGACCGUCCCCUCGGUAAUGGCGAAUGGGACCCA [C18U G31U] | 0.119 |
| GGCCGGCAUGGUCCCAGCCUCCUCGCUGGCGCCGGCUGGGCAACAAUCCGAGGGGACCGUCCCUUCGGUAAUGGCGAAUGGGACCCA [U46A C64U] | 0.649 |
| GGCCGGCAUGGUCCCAGACUCCUCGCUGACGCCGGCUGGGCAACAUUCCGAGGGGACCGUCCCCUCGGUAAUGGCGAAUGGGACCCA [C18A G29A] | 0.0604 |
| GGCCGGCAUGGUCCCAGCCUCCUCGCUGGCGCCGGCUGGGCAACACUCCGAGGGGACCGGCCCCUCGGUAAUGGCGAAUGGGACCCA [U46C U60G] | 0.755 |
| GGCCGGCAUGGUCACAGCCUCCUCGCUGGCGCCGGCUGGGCAACAUUCCGAGGGGAUCGUCCCCUCGGUAAUGGCGAAUGGGACCCA [C14A C57U] | 1.23 |
| GGCCGGCAUGGUCCCAACCUCCUCGCUGGCGCCGGCUGGGCAACAUUCCCAGGGGACCGUCCCCUCGGUAAUGGCGAAUGGGACCCA [G17A G50C] | 0.502 |
| GGCCGGCAUGGUCCCAGCCUCCUCGCUGGCGCCGGCUGGACAACAUUCCGAGGGGACCGUCCCCUCGGUAACGGCGAAUGGGACCCA [G40A U72C] | 0.504 |
